# Experimental data taken from US20230203158A1.
# Experiments:
# human TNFα (human) = human TNFα (human) (UniProt P01375); test: cell-based or functional assay
# [1] = target: IL-10 receptor of HEK-BLUE IL-10 cells (the cells express all the components of the IL-10 signaling pathway); test: cell-based or functional assay
# human TNFα (human), sequence (P01375 77-233 limits assumed): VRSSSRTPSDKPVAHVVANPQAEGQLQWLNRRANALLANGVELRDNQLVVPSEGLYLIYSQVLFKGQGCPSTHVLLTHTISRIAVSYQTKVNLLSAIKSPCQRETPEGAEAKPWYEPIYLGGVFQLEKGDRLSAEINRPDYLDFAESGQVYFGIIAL
"IC50 (nM, replicate 2), inhibition of TNFα signaling in HEK-BLUE TNFα cells (human TNFα (human)) [nM]","EC50 (pM), HEK-BLUE IL-10 signaling assay (SEAP) [1] [pM]",Substance
0.07,–,Etanercept (PRO078) (Fc fusion)
–,21,recombinant human IL-10 (BioLegend #573204) (from UniProt P22301 19-178) (ligand)
